According to patent US20130289246A1 (VANDERBILT UNIVERSITY, published 2013):

How the values were obtained:
[1] = biological target: T1, first-generation H1 LAH construct H1frThrST (Influenza A virus (H1)); experiment: ELISA, supernate
[2] = biological target: T2, first-generation H3 LAH construct H3frThrST (Influenza A virus (H3)); experiment: ELISA, supernate
[3] = biological target: T1, first-generation H1 LAH construct …; experiment: ELISA, supernate; remark: listed apart in the source
[4] = biological target: T1, first-generation H1 LAH construct …; experiment: ELISA, supernate; remark: listed apart in the source
[5] = biological target: T2, first-generation H3 LAH construct …; experiment: ELISA, supernate; remark: listed apart in the source
[6] = biological target: T1, first-generation H1 LAH construct …; experiment: ELISA, recombinant mAb
[7] = biological target: T2, first-generation H3 LAH construct …; experiment: ELISA, recombinant mAb
[8] = biological target: T1, first-generation H1 LAH construct …; experiment: ELISA, supernate; remark: listed apart in the source
[9] = biological target: T2, first-generation H3 LAH construct …; experiment: ELISA, supernate; remark: listed apart in the source
[10] = biological target: T2, first-generation H3 LAH construct …; experiment: ELISA, supernate; remark: listed apart in the source
[11] = biological target: T1, first-generation H1 LAH construct …; experiment: ELISA, supernate; remark: listed apart in the source
[12] = biological target: T2, first-generation H3 LAH construct …; experiment: ELISA, supernate; remark: listed apart in the source
[13] = biological target: T1, first-generation H1 LAH construct …; experiment: ELISA, supernate; remark: listed apart in the source
[14] = biological target: T2, first-generation H3 LAH construct …; experiment: ELISA, supernate; remark: listed apart in the source

Binder	OD [1]	OD [2]	OD [8]	OD [9]	other results
mAb 4A10 (antibody, V domains shown) VH: EVQLVESGGGLVQPGGSLRLSCAASGFSFSSYWMTWVRQAPGKGLEWVANIKQYGSEKYYVDSVKGRFTISRDNAKNSLYLQMNSLRDDDTAVYYCARMGSYLDTYYYHYGMDVWGQGTTVTVS VL: QSVLTQPPSLSGAPGQRVTISCTGSSSNIGADYDVYWYQHLPGTAPKLLMYGDGYRPSGVPDRFSGSKSGTSASLAITGLQAEDEADYYCQSYDSSLSRRVVFGGGTKLTVLG	0.069 OD	0.073 OD			
mAb 10E15 (antibody, V domains shown) VH: EVQLLESGGGVVQPGRSLRLSCAASGFTFRTYGMHWVRQAPGKGLEWVAVISHDGNLKYYGGSVKGRFTISRDNSKNALYLQMNSLRVDDTALYYCARGIGITDAFDIRGQGTMVVVS VL: QSVLTQPPSVSAAPGQKVTISCSGSSSNIGKNYVSWYQQLPGTAPKLLIYDNDKRPSGIPDRFSGSKSGTSATLGITGLQTGDEADYHCGAWDSSLNGGVFGGGTKVTVLG					binding result [3]: no binding; OD [4]: 0.068 OD; OD [5]: 0.07 OD
mAb 3N6 (recombinant) (antibody, V domains shown) VH: QVQLQESGPGLVKPSETLSLTCSVSGGSINYYYWSWIRQPPGKGLECIGYISDTGRTYYNPSLRSRVTISVDTSKNQFSLNLTSMTAADTAVYYCARDPTGSRQKNAFDMWGQGTMVTVS VL: AIQMTQSPSSLSASVGDRVTITCRASQNIRSYLNWYQQKPGKAPNLLIYGTTSLESGVPSRFSGSGSGTDFTLTISSLQPEDFATYYCQQSYHTPQTFGQGTKVEIKR					OD [6]: 0.91 OD; OD [7]: 0.072 OD
mAb 18G6 (antibody, V domains shown) VH: QVQLKESGPGLVKPSETLSLTCTVSGGSISSSNYNWGWIRQPPGKGLEWIGSVYYSGSTYFNPSLKSRVTISVDTSKNQFSLKLTSVTAADTAVYYCARLIAFYYDTNGYTWGQGTLVTVS VL: NSIMTQSPFTLSASVGDKVTITCRASQSISPWLAWYQQKPGKAPKLLIYKASSLETGVPSRFSGSESGTEFTLTISGLQPDDFATYYCQQYSSFARTFGQGTKVEIKR			0.071 OD	0.071 OD	
mAb 5J8 (antibody, V domains shown) VH: EVQLVESGPGLVKPSDILSLTCAVSGYSISSNYYWGWIRQPPGKGLEWIGSIYHSGSTYYKPSLESRLGISVDTSKNQFSLKLSFVSAADTAVYYCARHVRSGYPDTAYYFDKWGQGTLVTVS VL: SYVLTQPPSVSVAPGETARISCGGNNIGTKVLHWYQQTPGQAPVLVVYDDSDRPSGIPERFSGSNSGNTATLTISRVEVGDEADYYCQVWDISTDQAVFGGGTKLTVLG	0.076 OD	0.083 OD			
mAb 25J3 (antibody, V domains shown) VH: QVQLQESGPGLVRPSETLSLTCNVSGDSINDYYWSWIRQPPGKGLEWIGYIYYSGSTNYNPSLNSRVTISVEMSKNQFSLILNSVTAADTAVYYCARVDYDSGGSFDPWGQGTLVTVS VL: QSVLTQPPSVSGAPGQRVTISCTGSSSNIGAGYDVHWYQQLPGTAPKLLIYGNSNRPSGVPDRFSGSKSGTSASLAITGLQAEDEADFYCQSYDSRLSGYVFGTGTKVTVLG			0.068 OD	0.067 OD	
mAb 11J19 (antibody, V domains shown) VH: EVQLQESGPGLVKPSETLSLSCTVSGGSITRSSYYWGWIRQPPGKGLEWIGNIYYSGTTYYNPSLKSRVTISVDTSKNQFSLKLSSVTAADTAVYYCARLYGSGLDYWGQGTLVTVS VL: DIQLTQSPSFLSASVGDRVTITCRASQGSSRYVAWYQQKPGKAPKLLILAASTLHTGVPSRFSGSGSGTEFTLTISSLQPEDFATYSCQQLNGFLLTFGGGTKVEIKR			0.085 OD	0.075 OD	
mAb 3E22 (antibody, V domains shown) VH: EVQLVESGAEVKKPGASVKVSCKASGYTFSRYYIHWVRQAPGQELEWMGWINPDSGDTNYAQKFRGRVTMARDTSISTVYMELNSLRYDDTAVYFCARIIWSSSGMDVWGQGTTVTVS VL: QSALTQPASVSGSPGQSITISCTGTSSDVGSYNLVSWYQQHPGKAPKLMIYEVSKRPSGVSNRFSGSKSGNTASLTISGLQAEDEADYYCHLYVGSSNWVFGGGTKLAVLG					binding result [3]: no binding; binding result [10]: no binding; OD [11]: 0.087 OD; OD [12]: 0.086 OD
mAb 6J24 (antibody, V domains shown) VH: EVQLVESGGGLVQPGRSLRLSCVGSGFNFDGYAMQWVRQVPGKGLEWVSGISWHSDSTGYADSVRGRFTISRDNAKNSLYLQMDSLRPEDTAFYYCGKSIGHVGGSYRHPIDYWGQGTLVTVS VL: DIQLTQSPSSLSASVGDRVTITCRASQGITDYLAWYQQKPGTIPKLLIYAASTLQSGVPSRFSGGGYGTDFTLTISSLQPEDVATYYCQKYNSAPLTFGGGTKVEIKR					OD [13]: 0.418 OD; OD [14]: 0.94 OD
mAb 8F8 (antibody, V domains shown) VH: EVQLLESGGGVVQPGRSLRLSCAASGFMFSSYVMHWVRQPPGKGLEWVAVIWYDGSKTYFADSMRGRLTVSRDNSKNALYLQMNRLRAEDTAVYYCARQQDSGYSGPEVSYYSHYGMDVWGQGTTVIVS VL: QSVLTQSPSASGTPGRAITISCSGSSSNIGSNPVNWYQQLPGAAPKLLIYADEHRPSGVPDRFSGPKSGTSASLAISGLQSEDEADYYCAAWDDSLSGPAVVFGGGTKLTVLG			0.071 OD	0.071 OD	
mAb 7A13 (antibody, V domains shown) VH: QVQLQESAPGLVKPSGTLSLTCAVSGASLSSSDWWTWVRQPPGKGLEWIGEIHHGGSTNSNPSLQSRVTISIDKSKKQFSLKLTSVTVADTAVYYCARAPGADAGPYSENIHHWGQGTLVTVS VL: QLVLTQSPSASASLGASVKLTCTLSSRHSDYAIGWHQQQPGKGPRYLMKLNPDGSHTKGDGIPDRFSGSSSGAERYLTISNLLSEDEADYYCQTWGTGIQVFGGGTRLTVIS			0.068 OD	0.068 OD	
mAb 2O10 (antibody, V domains shown) VH: EVQLVESGGGLVQPGGSLRLSCAASGFTFNSYWMTWVRQAPGKGLEWVANINQDGSEKFFVDSVKGRFTISRDNAKTSLYLQMNSLRVEDTAVYYCAREGAPYDTYYYYYAMDVWGQGTTVTVS VL: QSVLTQPPSVSGAPGQRVTISCTGTSSNIGAGYGVHWYQQLPGAAPKLLVYGNSNRPSGVPDRFSGSKSGTSASLAITGLQAEDEADYYCQSYDISLSGSNVFGTGTKVTVLG	0.072 OD	0.074 OD			
mAb 2K11 (antibody, V domains shown) VH: EVQLVESGGGLVQPGGSLRLSCVASTFSLINYWMTWVRQAPGKGLEWVANIKQDGFEKYYVDSVKGRFTISRDNAKNSLYLQMNSLRVEDTAVYYCARQGSYADTYFYHYGMDVWGQGTTVTVS VL: QSALTQPPSVSGAPGQRVTISCTGSSSNIGAGYDAYWYQQLPGTAPKLLIYGNSNRLSGVPDRFSASKSGTSASLAITGLQAEDEADYYCQSYDSSLSIFGGGTKLTVLR	0.079 OD	0.072 OD			
